{"source": "patent US20070117770", "about": "“Human ribosomal DNA (rDNA) and ribosomal RNA (rRNA) nucleic acids and uses thereof” (Cylene Pharmaceuticals, Inc., published 2007)", "binders": {"B1": {"name": "cMyc QP DNA (structured_DNA)", "DNA": "TGGGGAGGGTGGGGAGGGTGGGGAAGG"}, "B2": {"name": "6534NT (structured_DNA)", "DNA": "GGGCGGGGGGGGCGGGGGG"}, "B3": {"name": "10816NT (structured_DNA)", "DNA": "GGGCTGGGTCGGTCGGGCTGGGG"}, "B4": {"name": "RND27 (ssDNA)", "DNA": "GTCGTAACGTCGATCAGTTTACGACAT"}, "B5": {"name": "6960NT (structured_DNA)", "DNA": "GGGTGGCGGGGGGGAGAGGGGGG"}, "B6": {"name": "7253NT (structured_DNA)", "DNA": "GGGTCCGGAAGGGGAAGGGTGCCGGCGGGGAGAGAGGGTCGGGGG"}, "B7": {"name": "8511NT (structured_DNA)", "DNA": "GGGGGCGGGCTCCGGCGGGTGCGGGGGTGGGCGGGCGGGGCCGGGGGTGGGGTCGGCGGGGG"}, "B8": {"name": "8749NT (structured_DNA)", "DNA": "GGGAGGGCGCGCGGGTCGGGG"}}, "key": {"[1]": {"molecular_target": "T1, Nucleolin (MBP fusion, lacking N-terminal acidic stretches domain) (Homo sapiens, UniProt P19338 P19338:284-710)", "T1 sequence (P19338 284-710, one chain of several)": "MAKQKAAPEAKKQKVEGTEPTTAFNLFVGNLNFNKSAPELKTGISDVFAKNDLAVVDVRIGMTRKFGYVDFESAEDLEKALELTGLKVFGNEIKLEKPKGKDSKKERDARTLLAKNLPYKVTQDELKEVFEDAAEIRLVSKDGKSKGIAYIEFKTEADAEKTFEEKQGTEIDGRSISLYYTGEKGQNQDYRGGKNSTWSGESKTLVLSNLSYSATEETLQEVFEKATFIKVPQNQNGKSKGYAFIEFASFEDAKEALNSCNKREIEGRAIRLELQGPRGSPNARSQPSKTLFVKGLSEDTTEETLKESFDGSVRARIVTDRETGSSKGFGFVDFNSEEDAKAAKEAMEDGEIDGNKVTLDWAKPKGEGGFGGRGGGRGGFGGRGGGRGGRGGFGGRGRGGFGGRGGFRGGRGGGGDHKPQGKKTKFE", "experiment": "EMSA; complex disrupted by compounds A-1, B-1, C-6, C-7; 60 mM KCl, 1 mM MgCl2, room temperature", "settings": "label: 32P; G4", "description": "(§1) The following assays assessed effects of compounds on interactions between nucleolin and nucleic acid ligands capable of forming quadruplex (QP) and hairpin (HP) secondary structures. Nucleic acid ligands tested were a cMyc QP DNA having nucleotide sequence 5′-[…]-3′ (SEQ ID NO: 176) and a HP pre-rRNA region to which nucleolin binds, having the sequence 5′-[…]-3′ (SEQ ID NO: 177). In the assays, recombinant nucleolin (˜250 nM), which was fused to maltose binding protein and had the sequence under accession number NM_{—}005381 without the N-terminal acidic stretches domain, was incubated with each of the two ³²P-labeled nucleic acid ligands (10 or 250 nM). Nucleolin and the nucleic acid ligand were incubated in the presence or absence of a test compound of Formula A-1, B-1, C-6 or C-7 in an incubation buffer (12.5 mM Tris, pH 7.6, 60 mM KCl, 1 mM MgCl₂, 0.1 mM EDTA, 1 mM DTT, 5% glycerol, 0.1 mg/ml BSA) for 30 minutes at room temperature. Structures for A-1 and B-1 are shown above and structures for C-6 and C-7 are shown hereafter: The resulting complexes were separated on a 6% DNA retardation gel using 0.5× TBE with 20 mM KCl as a running buffer (i.e., electrophoresis mobility shift assay (EMSA))."}, "[2]": {"molecular_target": "T1, Nucleolin (MBP fusion, lacking …)", "experiment": "filter; Bmax 51%; 60 mM KCl, 1 mM MgCl2", "settings": "label: 32P; G4 parallel", "description": "(§2) The assay also was conducted in a filter-binding format. In such forms of the assay, 0.2 nM of ³²P-labeled quadruplexes were incubated in 50 uL of the binding buffer (12.5 mM Tris-HCl, pH 7.6, 60 mM KCl, 1 mM MgCl2, 0.1 mM EDTA, 5% glycerol, 0.1 mg/mL BSA) for 10 min at 85 C and then for 10 min on ice and mixed with another 50 uL of binding buffer containing increasing amounts of recombinant protein Nucleolin. The protein-quadruplex mixtures were incubated for 30 min at ambient temperature and filtered through mixed cellulose ester membrane filters (Millipore) with gentle suction. The filters were washed twice with […] of binding buffer, dried and OptiPhase ‘SuperMix’ scintillation cocktail (Perkin Elmer) was added to the wells. Radioactivity was assayed with MicroBeta scintillation counter (Perkin Elmer). Binding curves were constructed and apparent Kd's and Bmax's for the complexes were calculated using the GraphPad Prizm software program (GraphPad Software). […]"}, "[3]": {"molecular_target": "T1, Nucleolin (MBP fusion, lacking …)", "experiment": "EMSA", "settings": "label: 32P; G4 antiparallel", "description": "as §1, with “Structures for A-1 and B-1 are shown above and structures for C-6 and C-7 are shown hereafter: The resulting complexes were separated on a 6% DNA retardation gel using 0.5× TBE with 20 mM KCl as a running buffer (i.e., electrophoresis mobility shift assay (EMSA)).” left out\nThe assay also was conducted using nucleic acid ligands derived from human ribosomal DNA. […] It was determined from these assays that compound A-1, but not Actinomycin D, interfered with nucleolin/nucleic acid ligand interactions. […]"}, "[4]": {"molecular_target": "T1, Nucleolin (MBP fusion, lacking …)", "experiment": "EMSA; random single-stranded control", "settings": "label: 32P, no quadruplex", "description": "In the assays, recombinant nucleolin (˜250 nM), which was fused to maltose binding protein and had the sequence under accession number NM_{—}005381 without the N-terminal acidic stretches domain, was incubated with each of the two ³²P-labeled nucleic acid ligands (10 or 250 nM). Nucleolin and the nucleic acid ligand were incubated in the presence or absence of a test compound of Formula A-1, B-1, C-6 or C-7 in an incubation buffer (12.5 mM Tris, pH 7.6, 60 mM KCl, 1 mM MgCl₂, 0.1 mM EDTA, 1 mM DTT, 5% glycerol, 0.1 mg/ml BSA) for 30 minutes at room temperature. Structures for A-1 and B-1 are shown above and structures for C-6 and C-7 are shown hereafter: The resulting complexes were separated on a 6% DNA retardation gel using 0.5× TBE with 20 mM KCl as a running buffer (i.e., electrophoresis mobility shift assay (EMSA)).\nThe assay also was conducted using nucleic acid ligands derived from human ribosomal DNA. Sequences of these nucleic acids are shown in the preceding example. It was determined from these assays that compound A-1, but not Actinomycin D, interfered with nucleolin/nucleic acid ligand interactions. […] A “+” represents the weakest nucleolin affinity and least interference by compound A-1 and a “++++” represents the strongest nucleolin affinity and greatest interference by compound A-1."}, "[5]": {"molecular_target": "T1, Nucleolin (MBP fusion, lacking …)", "experiment": "filter; Bmax 68%; 60 mM KCl, 1 mM MgCl2", "settings": "label: 32P; G4 parallel", "description": "as §2"}, "[6]": {"molecular_target": "T1, Nucleolin (MBP fusion, lacking …)", "experiment": "filter; Bmax 60%; 60 mM KCl, 1 mM MgCl2", "settings": "label: 32P; G4 mixed", "description": "as §2"}, "[7]": {"molecular_target": "T1, Nucleolin (MBP fusion, lacking …)", "experiment": "filter; Bmax 100%; 62-mer printed here, Example 6 table prints a shorter sequence under the same name", "settings": "label: 32P; G4 mixed", "description": "as §2"}, "[8]": {"molecular_target": "T1, Nucleolin (MBP fusion, lacking …)", "experiment": "filter; Bmax 13%; 60 mM KCl, 1 mM MgCl2", "settings": "label: 32P; G4 antiparallel", "description": "as §2"}}}
{"binder": "B1", "values": [{"measurement": "binding result", "setting": "[1]", "value": "binds"}]}
{"binder": "B2", "values": [{"measurement": "Kd", "setting": "[2]", "value": 1.1, "unit": "nM"}]}
{"binder": "B3", "values": [{"measurement": "binding result", "setting": "[3]", "value": "no binding"}]}
{"binder": "B4", "values": [{"measurement": "binding result", "setting": "[4]", "value": "no binding"}]}
{"binder": "B5", "values": [{"measurement": "Kd", "setting": "[5]", "value": 0.5, "unit": "nM"}]}
{"binder": "B6", "values": [{"measurement": "Kd", "setting": "[6]", "value": 0.4, "unit": "nM"}]}
{"binder": "B7", "values": [{"measurement": "Kd", "setting": "[7]", "value": 0.6, "unit": "nM"}]}
{"binder": "B8", "values": [{"measurement": "Kd", "setting": "[8]", "value": 1.9, "unit": "nM"}]}
